Laboratory results published in US20260008862A1, “Bispecific Anti-BCMA x Anti-CD3 Antibodies and Uses Thereof” (Regeneron Pharmaceuticals, Inc., priority 2018, published 2026).

B1: REGN4514: anti-BCMA antibody, HCVR/LCVR SEQ ID NOs 34/42 (antibody, V domains shown)
VH: EVQLVESGGGLVQPGRSLRLSCAASGFTFDDYAMHWVRQAPGKGLEWVSGISWNSGNMGYADSVKGRFTISRDNAKNSLFLQMHSLRAEDTAFYYCAKVRLTAFDFWGQGTLVTVSS
VL: DIQMTQSPSSLSASVGDRVTITCRTSQSIGNYLNWFQQKPGKAPKLLIYTASSLQNGVPSRFTGSGSGTDFTLTISSLQPEDFVIYYCQQSFSTPYTFGQGTKLEIK
B2: mAb16711: anti-BCMA antibody, HCVR/LCVR SEQ ID NOs 2/10 (antibody, V domains shown)
VH: QVQLVESGGGVVQPGRSLRLSCAASGFTFSTYGIHWVRQAPGKGLEWVAVILHDGSSNYYAESVKGRFIISRDNSKNTLYLQMNSLRAEDTALYYCTKRYSEAAGPNWFDPWGQGTLVTVSS
VL: DIQMTQSPSSVSASVGDRVTITCRASRGISSWLAWYQQKPGKAPKLLIHAASSLQSGVPSRFSGSGSGTDFTLTISSLQPEDFATYYCQQAISFPFTFGPGTKVDIK
B3: REGN4515: anti-BCMA antibody, HCVR/LCVR SEQ ID NOs 50/58 (antibody, V domains shown)
VH: QVQLVESGGGLVKPGGSLRLSCAASGFTFSDYYISWIRQAPGKGLEWVSYISSSGSSIKYADSVKGRFTISRDNAKNSLYLQMNSLRAEDTAVYYCAREGGNYGMDVWGQGTTVTVSS
VL: DIQMTQSPSSVSASVGDRVTITCRASQGINNWLVWYQQKPGKAPKLLIYAATSLQSGVPSRFSGSGSGTDFTLTISSLQPEDFATYYCQQANSFPPTFGQGTKLEIK

What was measured:
[1] = biological target: surface BCMA on Molp8 cells (Homo sapiens, UniProt Q02223); test: FACS surface BCMA after overnight incubation, Molp8; format: cell-based; details: range over detecting anti-BCMA antibodies
Protocol: (§1) Flow cytometric analysis was utilized to determine the impact of overnight incubation of multiple myeloma cell lines with anti-BCMA antibodies on the level of surface BCMA. […] After 18 hours, wells were washed with cold FACS wash (PBS+1% filtered FBS) and resuspended in 667 nM of the same anti-BCMA antibody in cold stain buffer (Miltenyi 130-091-221) for 30 minutes on ice. After incubation, the cells were washed twice with cold FACS wash (PBS+1% filtered FBS) and bound antibody was detected by incubating with the appropriate anti-human secondary antibody (anti-hIgG or anti-HIS) on ice for an additional 30-45 minutes. After incubation, cells were washed, re-suspended in 200 μL cold PBS containing 1% filtered FBS and analyzed by flow cytometry on a BD FACS Canto II. Fold increase in staining was calculated by dividing the MFI of stained cells previously incubated overnight in BCMA abs or DAPT by the MFI of stained cells that were incubated overnight in media only.

[2] = biological target: T1, surface BCMA on U266 cells (Homo sapiens, UniProt Q02223); test: FACS surface BCMA after overnight incubation, U266; format: cell-based; details: range over detecting anti-BCMA antibodies
T1 construct: human cell lines which express endogenous BCMA; endogenous in cells; host or cells: multiple myeloma cell lines U266
Protocol: as §1

[3] = biological target: surface BCMA on MM1.S cells (Homo sapiens, UniProt Q02223); test: FACS surface BCMA after overnight incubation, MM1S; format: cell-based; details: MM.1 S
Protocol: as §1

[4] = biological target: T2, surface BCMA on H929 cells (Homo sapiens, UniProt Q02223); test: FACS surface BCMA after overnight incubation, NCI-H929; format: cell-based; details: range over detecting anti-BCMA antibodies
T2 construct: human cell lines which express endogenous BCMA (e.g., NCI-H929); endogenous in cells; host or cells: multiple myeloma cell lines H929
Protocol: as §1

mouse BCMA-MFC = test: SPR (Biacore 4000) binding kinetics to mouse BCMA-MFC; details: 25° C.
Protocol: (§2) The CM5 Biacore sensor surface was derivatized by amine coupling with a monoclonal mouse anti-human Fc antibody (GE, #BR-11008-39) to capture purified anti-BCMA mAbs and anti-BCMA×anti-CD3 bispecific mAbs. All Biacore binding studies were performed in a buffer composed of 0.01 M HEPES pH 7.4, 0.15M NaCl, 3 mM EDTA, 0.05% v/v Surfactant P20 (HBS-ET running buffer). […] Antigen samples were then injected over the anti-BCMA and anti-BCMA×anti-CD3 bispecific mAbs captured surfaces at a flow rate of 30 μL/minute. Antibody-reagent association was monitored for 5 minutes while dissociation in HBS-ET running buffer was monitored for 10 minutes. All of the binding kinetics experiments were performed at 25° C. Kinetic association (ka) and dissociation (kd) rate constants were determined by fitting the real-time sensorgrams to a 1:1 binding model using Scrubber 2.0c curve fitting software. Binding dissociation equilibrium constants (KD) and dissociative half-lives (t½) were calculated from the kinetic rate constants as: […]

monkey BCMA-MFC = test: SPR (Biacore 4000) binding kinetics to monkey BCMA-MFC; details: 25° C.
Protocol: as §2

human BCMA-MFC = biological target: T3, human BCMA-MFC (Homo sapiens, UniProt Q02223); test: SPR (Biacore 4000) binding kinetics to human BCMA-MFC; details: 25° C.
T3 construct: (human BCMA-MFC); made in house
Protocol: as §2

human BCMA-MMH = biological target: T4, human BCMA-MMH (Homo sapiens, UniProt Q02223); test: SPR (Biacore 4000) binding kinetics to human BCMA-MMH; details: 25° C.
T4 construct: (human BCMA-MMH); myc-myc-hexahistidine (C); made in house
Protocol: as §2

monkey BCMA-MMH = test: SPR (Biacore 4000) binding kinetics to monkey BCMA-MMH; details: 25° C.; 90 nM antigen
Protocol: as §2

T3 sequence (Q02223 with tags, fused parts or gaps): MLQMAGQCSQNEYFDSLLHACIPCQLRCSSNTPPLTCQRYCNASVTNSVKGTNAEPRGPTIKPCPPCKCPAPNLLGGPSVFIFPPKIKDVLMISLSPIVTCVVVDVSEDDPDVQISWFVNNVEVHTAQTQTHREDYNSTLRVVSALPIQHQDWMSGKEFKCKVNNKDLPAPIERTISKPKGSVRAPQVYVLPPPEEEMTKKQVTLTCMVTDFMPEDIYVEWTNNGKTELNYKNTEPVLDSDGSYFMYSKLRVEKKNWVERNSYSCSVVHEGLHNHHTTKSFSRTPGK
Sequence of mouse BCMA-MFC (as listed by the source): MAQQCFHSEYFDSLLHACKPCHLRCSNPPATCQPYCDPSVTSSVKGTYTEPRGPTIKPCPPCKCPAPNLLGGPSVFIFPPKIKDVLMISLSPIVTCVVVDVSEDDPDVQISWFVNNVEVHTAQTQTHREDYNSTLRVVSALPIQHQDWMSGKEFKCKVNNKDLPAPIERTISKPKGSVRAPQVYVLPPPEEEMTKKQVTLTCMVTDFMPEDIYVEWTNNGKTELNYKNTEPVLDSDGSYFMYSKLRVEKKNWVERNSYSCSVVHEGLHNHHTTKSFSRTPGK
Sequence of monkey BCMA-MFC (as listed by the source): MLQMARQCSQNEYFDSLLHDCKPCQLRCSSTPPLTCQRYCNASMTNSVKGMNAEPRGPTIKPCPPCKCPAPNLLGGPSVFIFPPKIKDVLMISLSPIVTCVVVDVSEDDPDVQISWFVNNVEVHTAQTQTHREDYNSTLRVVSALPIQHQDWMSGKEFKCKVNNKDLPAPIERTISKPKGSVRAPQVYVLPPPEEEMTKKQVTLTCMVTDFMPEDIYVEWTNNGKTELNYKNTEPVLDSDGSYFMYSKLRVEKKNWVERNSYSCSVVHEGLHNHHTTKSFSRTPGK
T4 sequence (Q02223 with tags, fused parts or gaps): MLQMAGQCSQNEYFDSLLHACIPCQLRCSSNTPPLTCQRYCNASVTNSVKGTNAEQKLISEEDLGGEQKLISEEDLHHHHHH
Sequence of monkey BCMA-MMH (as listed by the source): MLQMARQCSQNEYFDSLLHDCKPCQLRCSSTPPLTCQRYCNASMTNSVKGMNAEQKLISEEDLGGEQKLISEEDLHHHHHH
Sequence of surface BCMA on MM1.S cells (Q02223 whole entry): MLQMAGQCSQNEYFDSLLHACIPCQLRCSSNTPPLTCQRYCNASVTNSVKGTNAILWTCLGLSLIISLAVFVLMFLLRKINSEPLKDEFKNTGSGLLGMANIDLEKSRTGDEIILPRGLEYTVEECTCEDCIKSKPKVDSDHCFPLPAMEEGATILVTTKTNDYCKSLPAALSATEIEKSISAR
T2 sequence (Q02223 whole entry): as above
T1 sequence (Q02223 whole entry): as above
Sequence of surface BCMA on Molp8 cells (Q02223 whole entry): as above

Molecule | fold increase in MFI of BCMA over cells incubated in media only [1] | fold increase in MFI of BCMA over cells incubated in media only [2] | fold increase in MFI of BCMA over cells incubated in media only [3] [fold] | fold increase in MFI of BCMA over cells incubated in media only [4] | ka (mouse BCMA-MFC) [M⁻¹ s⁻¹] | kd (mouse BCMA-MFC) [s⁻¹] | ka (monkey BCMA-MFC) [M⁻¹ s⁻¹] | kd (monkey BCMA-MFC) [s⁻¹] | ka (human BCMA-MFC) [M⁻¹ s⁻¹] | kd (human BCMA-MFC) [s⁻¹] | ka (human BCMA-MMH) [M⁻¹ s⁻¹] | kd (human BCMA-MMH) [s⁻¹] | 90 nM mfBCMA.mmh Bind (RU) (monkey BCMA-MMH)
C[C@H](NC(=O)Cc1cc(F)cc(F)c1)C(=O)N[C@H](C(=O)OC(C)(C)C)c1ccccc1 [DAPT] | 2.4-8.6 fold | 5.3-9.0 fold | 11.9 | 2.3-4 fold |  |  |  |  |  |  |  |  | 
B1 |  |  |  |  | 397000 | 0.000269 | 492000 | 0.00724 | 1.07e+06 | 4.53e-05 | 1.06e+06 | 0.00285 | 1.1
B2 |  |  |  |  | 1.07e+06 | 0.0011 |  |  | 1.85e+06 | 0.00019 | 2.01e+06 | 0.00347 | 
B3 |  |  |  |  | 947000 | 0.00418 | 2.13e+06 | 0.00716 | 1.41e+06 | 8.95e-05 | 869000 | 0.00247 | 1.9
